Assay results published in patent US20240218055A1 (US Dept. of Health and Human Services, published 2024).
Like-named read-outs stand apart in the source and are kept apart here.

T1: LASV Josiah GPC on pseudotyped rVSV (Lassa virus (Josiah strain), UniProt P08669 1-491)
T1 sequence: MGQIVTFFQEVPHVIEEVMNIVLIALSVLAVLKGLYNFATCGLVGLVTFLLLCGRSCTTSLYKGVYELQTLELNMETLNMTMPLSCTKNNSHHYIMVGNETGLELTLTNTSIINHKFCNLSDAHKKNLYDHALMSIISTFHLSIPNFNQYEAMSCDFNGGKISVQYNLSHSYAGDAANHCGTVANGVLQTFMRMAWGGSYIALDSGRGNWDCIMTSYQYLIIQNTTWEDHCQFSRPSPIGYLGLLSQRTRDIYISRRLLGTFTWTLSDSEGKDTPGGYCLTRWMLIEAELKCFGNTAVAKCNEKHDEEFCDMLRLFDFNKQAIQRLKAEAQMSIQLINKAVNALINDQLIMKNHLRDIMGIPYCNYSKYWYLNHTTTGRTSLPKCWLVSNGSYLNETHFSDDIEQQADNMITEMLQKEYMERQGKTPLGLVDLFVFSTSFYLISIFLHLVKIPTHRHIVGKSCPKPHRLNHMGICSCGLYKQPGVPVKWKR

T2: LASV GP1 subunit protein (Lassa virus, UniProt P08669 59-259)
T2 sequence: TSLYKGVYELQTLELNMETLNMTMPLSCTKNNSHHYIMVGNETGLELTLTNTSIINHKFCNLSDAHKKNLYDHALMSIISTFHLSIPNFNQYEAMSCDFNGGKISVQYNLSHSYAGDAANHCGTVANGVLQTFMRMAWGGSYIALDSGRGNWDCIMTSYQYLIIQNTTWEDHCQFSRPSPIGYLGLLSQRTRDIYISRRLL

B1: camel VHH D5 (VHH)
VHH: AWQLVESGGGSVQPGGSLTLTCQASKSTFSTSGMRWERQAQGKGVEFVADISSDSTRKWYSDSVKGRFTISRSNWWRTVTLQMNDLKPEDTARYYCKDLESHHLRGQGTQVTVSS
B2: shark VNAR B10 (VNAR)
VNAR: ARVDQTPQTITKETGESLTINCVLRDSNCPLSSTFWYRADAGSLNEENISKGGRYVETVNSGSKSFSLRINDLTTEDSGTYRCKVAGLPLDCIPARGLELNWREDVYGGGTAVTVN
B3: shark VNAR B8 (VNAR)
VNAR: ARVDQTPQTVTKETGESLTINCVLRDSNCALPSTYWYRKKSGSTNEENISKGGRYVETVNSGSKSFSLRINDLRPEDSGTYRCKVHGLPLDCIPARGLELNWREDVNGGGTAVTVN
B4: shark VNAR C3 (VNAR)
VNAR: ARVDQTPQTITAETGESLTINCVLRNSDCGLSDTYWFRMSPGSGSEERISIGGRYLETVNSVSKSFSLRINDLTVEDSGRYRCKTDVYRYVSGSGCLYSYFASGAGTVVTVN
B5: shark VNAR A1 (VNAR)
VNAR: ARVDQTPQTITKETGESLTINCVPPDSNCALADTYWYRKKSGSTNEESISKGGRYVPTVNSGSKSFILRINDLRVADSGTYRCKVSCYAAAYYGQQLERLYDVYGGGTAVTVN
B6: bivalent single domain antibody D5 in IgG2a format (Fc fusion)
chain 1: AWQLVESGGGSVQPGGSLTLTCQASKSTFSTSGMRWERQAQGKGVEFVADISSDSTRKWYSDSVKGRFTISRSNWWRTVTLQMNDLKPEDTARYYCKDLESHHLRGQGTQVTVSSAAAEPKIPQPQPKPQPQPQPQPKPQPKPEPECTCPKCP
chain 2: B6 chain 1
B7: shark VNAR A10 (VNAR)
chain: ARVDQTPQTITKETGESLTITCILRDSQCALSPTYWYHKKSGSTKPERIYKGGRYVETVNSGSKSFSLRINDLTVEDSGTFFCKVSGWYAYSCRLEPDGYYDVYGGGTVVTVN

Assays:
[1] = biological target: T1, LASV Josiah GPC on pseudotyped rVSV; assay: cell-based or functional assay
[2] = biological target: T2, LASV GP1 subunit protein; assay: BLI
[3] = biological target: T2, LASV GP1 subunit protein; assay: BLI; remark: listed apart in the source
[4] = biological target: bovine serum albumin (bovine, UniProt P02769 25-607); assay: ELISA, plate coated with BSA
[5] = biological target: LASV GP2 subunit protein (Lassa virus); assay: BLI

bovine serum albumin, sequence (P02769 25-607 limits assumed): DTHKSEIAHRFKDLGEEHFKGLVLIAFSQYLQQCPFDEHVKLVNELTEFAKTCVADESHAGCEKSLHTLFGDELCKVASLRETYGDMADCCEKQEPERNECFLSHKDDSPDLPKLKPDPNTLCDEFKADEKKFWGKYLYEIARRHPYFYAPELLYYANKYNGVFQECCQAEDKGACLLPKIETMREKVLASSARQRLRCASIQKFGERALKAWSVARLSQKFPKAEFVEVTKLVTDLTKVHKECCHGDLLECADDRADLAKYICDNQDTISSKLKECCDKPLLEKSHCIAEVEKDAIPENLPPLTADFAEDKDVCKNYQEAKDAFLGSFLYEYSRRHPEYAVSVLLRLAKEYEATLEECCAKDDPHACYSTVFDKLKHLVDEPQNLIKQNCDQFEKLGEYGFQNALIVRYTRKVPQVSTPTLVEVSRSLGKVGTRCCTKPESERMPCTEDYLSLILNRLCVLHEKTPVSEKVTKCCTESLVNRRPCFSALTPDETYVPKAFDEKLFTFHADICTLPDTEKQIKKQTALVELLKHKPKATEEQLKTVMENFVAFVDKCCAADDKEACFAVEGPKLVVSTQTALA

Row | Binder | neutralization of LASV pseudotyped Josiah virus [1] [%] | Kd [2] [nM] | kon [2] [M⁻¹ s⁻¹] | Kd [3] [nM] | binding result [4] | koff [2] [s⁻¹] | Kd [5] [nM] | koff [5] [s⁻¹] | kon [5] [M⁻¹ s⁻¹] | binding result [3] | IC50, neutralization of Josiah pseudovirus [1] [µg/mL]
1 | B1 | < 50 | 20.8 | 23400 | 20.8 |  |  |  |  |  |  | 
2 | B2 | < 50 |  | 52700 | 78.6 | no binding (tested: 1 ug/ml (single concentration)) | 0.00414 |  |  |  |  | 
3 | B3 | < 50 |  | 149000 | 15.9 | no binding (tested: 1 ug/ml (single concentration)) | 0.00236 |  |  |  |  | 
4 | B4 | < 50 |  |  |  | no binding (tested: 1 ug/ml (single concentration)) |  | 10.6 | 0.000265 | 25100 | no binding | 
5 | B5 | < 50 |  |  | 18.6 | no binding (tested: 1 ug/ml (single concentration)) |  |  |  |  |  | 
6 | B6 |  |  |  |  |  |  |  |  |  |  | 12
7 | B7 | < 50 |  |  | 22.7 | no binding (tested: 1 ug/ml (single concentration)) |  |  |  |  |  | 
